Patent US20160289304A1 (VIRO DYNAMICS, published 2016)

Legend:
[1] = target: synthetic peptide #34 […] (Influenza A virus A/Puerto Rico/8/1934 …); experiment: peptide ELISA, peptide coated at 10 µg/ml, mAb at 1 µg/ml
[2] = target: T1, hemagglutinin (HA) of A/Puerto Rico/8/1934 (PR8, H1N1) (Influenza A virus A/Puerto Rico/8/1934 …, UniProt P03452 18-565); experiment: cell-based or functional assay
[3] = target: T1, hemagglutinin (HA) of A/Puerto …; experiment: cell-based or functional assay; remark: listed apart in the source
[4] = target: synthetic peptide #39 […] (Influenza A virus A/Puerto Rico/8/1934 …); experiment: peptide ELISA, peptide coated at 10 µg/ml, mAb at 1 µg/ml

Binder | binding result [1] | concentration for complete neutralization of PR8, plaque inhibition assay [2] | in ovo neutralization, concentration for complete blocking of PR8 growth [2] | HI Titer to PR8 [3] | binding result [4]
39-3F2-2A6 (mAb-2A6) (antibody, V domains shown, also called HANA 39-3F2-2A6; sample 22b) VH: DVKLVESGGGLVKPGGSLKLSCAASGFTFSSYTMSWVRQTPEKRLEWVATISSGGIYTYYPDSVKGRFTISRDNAKNTLYLQMNSLKSEDTAMYYCVRSTSYYFDYWGQGTTLTVSS VL: DIVMTQSPSSLTVTAGEKVTMSCKSSQSLLSDGSQKNYLTWCQQKPGQPPKLLIYWASTRESGVPDRFTGSGSGTDFTLTISSVQAEDLGVYYCQNDHSYPLTFGAGTKLELK | binds | 0.1 µg/mL | 16 µg/mL | 80 reciprocal dilution | 
56-2G9-1B3 (mAb-1B3) (antibody, V domains shown) VH: EVQLVESGGGLVKPGGSLKLSCAASGFIFSSYVMSWVRQTPEKRLEWVATISSGGTNTYYPDSVKGRFTISRDNAKNTLYLQMSSLRSEDTAIYYCVRSYRYYFDYWGQGTTLTVSS VL: DIVMTQSPSSLTVTAGEKVTMSCKSSQSLLNSGSQKNYLTWFQQKPGQSPKLLIYWASSRESGVPDRFTGSGSGTDFTLTISSVQAEDLAVYYCQNDSNYPLTFGAGTKLELK |  | 0.1 µg/mL | 8 µg/mL | 40 reciprocal dilution | 
39-4D12-2D11 (mAb-2D11) (antibody, V domains shown, also called HANA 39-4D12-2D11; sample 28b) VH: DVKLVESGGGLVKPGGSPKLSCAASGFTFSSYTMSWVRQTPEKRLEWVATISSGGSYTYYPDSLKGRFTISRDNAKNTLYLQMSSLKSEDTAIYHCVRSTSYYFDYWGQGTTLTVSS VL: DIVMTQSPSSLTVTAGEKVTMNCKSSQSLLSDGSQKNYLTWCQQKPGQPPKLLIYWASTRESGVPDRFTGSGSGTDFTLTIDSVQAEDLGIYYCQNDHSYPLTFGAGTKLELK |  | 0.1 µg/mL | 4 µg/mL | 20 reciprocal dilution | binds
